Changes are numbered by the printed parent chain. In names and notes the source's numbering stands.
B1: AFF1-THD (953-1210), wild type (domain or fragment, UniProt P51825 953-1210, looked up)
chain: GKPQVKFDKQQADLHMREAKKMKQKAELMTDRVGKAFKYLEAVLSFIECGIATESESQSSKSAYSVYSETVDLIKFIMSLKSFSDATAPTQEKIFAVLCMRCQSILNMAMFRCKKDIAIKYSRTLNKHFESSSKVAQAPSPCIASTGTPSPLSPMPSPASSVGSQSSAGSVGSSGVAATISTPVTIQNMTSSYVTITSHVLTAFDLWEQAEALTRKNKEFFARLSTNVCTLALNSSLVDLVHYTRQGFQQLQELTKTP
notes: AFF1 THD, residues 953-1210; the limits 953-1210 fit human AFF1; also called wild-type AFF1-THD; source: E. coli BL21 (DE3), purified (Ni-NTA, Hi-Trap SP HP, TEV digestion, Superdex 200); not shown: His6, N-terminal, cleaved
B2: AFF1-THD F1063A+Y1145A (domain or fragment, UniProt P51825 953-1210, looked up)
chain: B1 chain with F111A, Y193A
notes: AFF1 THD, residues 953-1210, with F1063A and Y1145A; source: E. coli BL21 (DE3), purified (Ni-NTA, Hi-Trap SP HP, TEV digestion, Superdex 200); not shown: His6, N-terminal, cleaved
B3: AFF1-THD Y1145A (domain or fragment, UniProt P51825 953-1210, looked up)
chain: B1 chain with Y193A
notes: AFF1 THD, residues 953-1210, with Y1145A; also called AFF1^Y1145A; source: E. coli BL21 (DE3), purified (Ni-NTA, Hi-Trap SP HP, TEV digestion, Superdex 200); not shown: His6, N-terminal, cleaved
B4: AFF1-THD F1063A (domain or fragment, UniProt P51825 953-1210, looked up)
chain: B1 chain with F111A
notes: AFF1 THD, residues 953-1210, with F1063A; also called AFF1^F1063A; source: E. coli BL21 (DE3), purified (Ni-NTA, Hi-Trap SP HP, TEV digestion, Superdex 200); not shown: His6, N-terminal, cleaved
B5: Flag-AFF4 F1014A, full length (natural protein)
chain: MNREDRNVLRMKERERRNQEIQQGEDAFPPSSPLFAEPYKVTSKEDKLSSRIQSMLGNYDEMKDFIGDRSIPKLVAIPKPTVPPSADEKSNPNFFEQRHGGSHQSSKWTPVGPAPSTSQSQKRSSGLQSGHSSQRTSAGSSSGTNSSGQRHDRESYNNSGSSSRKKGQHGSEHSKSRSSSPGKPQAVSSLNSSHSRSHGNDHHSKEHQRSKSPRDPDANWDSPSRVPFSSGQHSTQSFPPSLMSKSNSMLQKPTAYVRPMDGQESMEPKLSSEHYSSQSHGNSMTELKPSSKAHLTKLKIPSQPLDASASGDVSCVDEILKEMTHSWPPPLTAIHTPCKTEPSKFPFPTKESQQSNFGTGEQKRYNPSKTSNGHQSKSMLKDDLKLSSSEDSDGEQDCDKTMPRSTPGSNSEPSHHNSEGADNSRDDSSSHSGSESSSGSDSESESSSSDSEANEPSQSASPEPEPPPTNKWQLDNWLNKVNPHKVSPASSVDSNIPSSQGYKKEGREQGTGNSYTDTSGPKETSSATPGRDSKTIQKGSESGRGRQKSPAQSDSTTQRRTVGKKQPKKAEKAAAEEPRGGLKIESETPVDLASSMPSSRHKAATKGSRKPNIKKESKSSPRPTAEKKKYKSTSKSSQKSREIIETDTSSSDSDESESLPPSSQTPKYPESNRTPVKPSSVEEEDSFFRQRMFSPMEEKELLSPLSEPDDRYPLIVKIDLNLLTRIPGKPYKETEPPKGEKKNVPEKHTREAQKQASEKVSNKGKRKHKNEDDNRASESKKPKTEDKNSAGHKPSSNRESSKQSAAKEKDLLPSPAGPVPSKDPKTEHGSRKRTISQSSSLKSSSNSNKETSGSSKNSSSTSKQKKTEGKTSSSSKEVKEKAPSSSSNCPPSAPTLDSSKPRRTKLVFDDRNYSADHYLQEAKKLKHNADALSDRFEKAVYYLDAVVSFIECGNALEKNAQESKSPFPMYSETVDLIKYTMKLKNYLAPDATAADKRLTVLCLRCESLLYLRLAKLKKENALKYSKTLTEHLKNSYNNSQAPSPGLGSKAVGMPSPVSPKLSPGNSGNYSSGASSASASGSSVTIPQKIHQMAASYVQVTSNFLYATEIWDQAEQLSKEQKEFFAELDKVMGPLIFNASIMTDLVRYTRQGLHWLRQDAKLIS
B6: Flag-AFF4 Y1096A, full length (natural protein)
chain: B5 chain with A1014F, Y1096A
B7: Flag-AFF1 F1063A+Y1145A+V1146A+V1152A, full length (natural protein)
chain: MAAQSSLYNDDRNLLRIREKERRNQEAHQEKEAFPEKIPLFGEPYKTAKGDELSSRIQNMLGNYEEVKEFLSTKSHTHRLDASENRLGKPKYPLIPDKGSSIPSSSFHTSVHHQSIHTPASGPLSVGNISHNPKMAQPRTEPMPSLHAKSCGPPDSQHLTQDRLGQEGFGSSHHKKGDRRADGDHCASVTDSAPERELSPLISLPSPVPPLSPIHSNQQTLPRTQGSSKVHGSSNNSKGYCPAKSPKDLAVKVHDKETPQDSLVAPAQPPSQTFPPPSLPSKSVAMQQKPTAYVRPMDGQDQAPSESPELKPLPEDYRQQTFEKTDLKVPAKAKLTKLKMPSQSVEQTYSNEVHCVEEILKEMTHSWPPPLTAIHTPSTAEPSKFPFPTKDSQHVSSVTQNQKQYDTSSKTHSNSQQGTSSMLEDDLQLSDSEDSDSEQTPEKPPSSSAPPSAPQSLPEPVASAHSSSAESESTSDSDSSSDSESESSSSDSEENEPLETPAPEPEPPTTNKWQLDNWLTKVSQPAAPPEGPRSTEPPRRHPESKGSSDSATSQEHSESKDPPPKSSSKAPRAPPEAPHPGKRSCQKSPAQQEPPQRQTVGTKQPKKPVKASARAGSRTSLQGEREPGLLPYGSRDQTSKDKPKVKTKGRPRAAASNEPKPAVPPSSEKKKHKSSLPAPSKALSGPEPAKDNVEDRTPEHFALVPLTESQGPPHSGSGSRTSGCRQAVVVQEDSRKDRLPLPLRDTKLLSPLRDTPPPQSLMVKITLDLLSRIPQPPGKGSRQRKAEDKQPPAGKKHSSEKRSSDSSSKLAKKRKGEAERDCDNKKIRLEKEIKSQSSSSSSSHKESSKTKPSRPSSQSSKKEMLPPPPVSSSSQKPAKPALKRSRREADTCGQDPPKSASSTKSNHKDSSIPKQRRVEGKGSRSSSEHKGSSGDTANPFPVPSLPNGNSKPGKPQVKFDKQQADLHMREAKKMKQKAELMTDRVGKAFKYLEAVLSFIECGIATESESQSSKSAYSVYSETVDLIKFIMSLKSFSDATAPTQEKIFAVLCMRCQSILNMAMARCKKDIAIKYSRTLNKHFESSSKVAQAPSPCIASTGTPSPLSPMPSPASSVGSQSSAGSVGSSGVAATISTPVTIQNMTSSAATITSHALTAFDLWEQAEALTRKNKEFFARLSTNVCTLALNSSLVDLVHYTRQGFQQLQELTKTP
B8: human AFF4-THD (902-1163), wild type (domain or fragment, UniProt Q9UHB7 902-1163, looked up)
chain: RRTKLVFDDRNYSADHYLQEAKKLKHNADALSDRFEKAVYYLDAVVSFIECGNALEKNAQESKSPFPMYSETVDLIKYTMKLKNYLAPDATAADKRLTVLCLRCESLLYLRLFKLKKENALKYSKTLTEHLKNSYNNSQAPSPGLGSKAVGMPSPVSPKLSPGNSGNYSSGASSASASGSSVTIPQKIHQMAASYVQVTSNFLYATEIWDQAEQLSKEQKEFFAELDKVMGPLIFNASIMTDLVRYTRQGLHWLRQDAKLIS
notes: AFF4 THD (TPRL with Handle Region Dimerization Domain, C-terminal homology domain), human, residues 902-1163; A selenomethionyl form was used for phasing only; The general purification text tells of TEV digestion and removal of the His6-tag, but only the N-terminal tag of AFF1-THD is called removable; also called AFF-THD; THD of AFF4; source: E. coli BL21 (DE3), purified (Ni-NTA, Hi-Trap SP HP, …)
B9: AFF4-THD T1100A+Y1096F (domain or fragment, human, UniProt Q9UHB7 902-1163, looked up)
chain: B8 chain with Y195F, T199A
notes: AFF4 THD, human, residues 902-1163, with T1100A and Y1096F; PDB 6K7P is the wild-type parent of the same limits; source: E. coli BL21 (DE3), purified (Ni-NTA, Hi-Trap SP HP, Superdex 200)
B10: AFF4-THD S1025A (domain or fragment, human, UniProt Q9UHB7 902-1163, looked up)
chain: B8 chain with S124A
notes: AFF4 THD, human, residues 902-1163, with S1025A; PDB 6K7P is the wild-type parent of the same limits; source: E. coli BL21 (DE3), purified (Ni-NTA, Hi-Trap SP HP, Superdex 200)
B11: AFF4-THD V1097A (domain or fragment, human, UniProt Q9UHB7 902-1163, looked up)
chain: B8 chain with V196A
notes: AFF4 THD, human, residues 902-1163, with V1097A; PDB 6K7P is the wild-type parent of the same limits; also called AFF4-THD^Val1097A; Val1097A; source: E. coli BL21 (DE3), purified (Ni-NTA, Hi-Trap SP HP, Superdex 200)
B12: AFF4-THD Y1024A (domain or fragment, human, UniProt Q9UHB7 902-1163, looked up)
chain: B8 chain with Y123A
notes: AFF4 THD, human, residues 902-1163, with Y1024A; PDB 6K7P is the wild-type parent of the same limits; source: E. coli BL21 (DE3), purified (Ni-NTA, Hi-Trap SP HP, Superdex 200)

Columns and labels:
[1] = target: the molecule itself; test: SEC; analytical gel filtration, Superdex 75 10/300 increase, 25 mM Tris pH 8.0, 150 mM NaCl, 2 mM DTT; 6 mg/ml, 100 μl injected; self-association, dimer or monomer by elution volume
[2] = target: Flag-AFF4 F1014A, full length (human) (UniProt Q9UHB7)
[3] = target: Flag-AFF4 Y1096A, full length (human) (UniProt Q9UHB7)
[4] = target: Flag-AFF1 F1063A+Y1145A+V1146A+V1152A, full length (UniProt P51825)

Binder | binding result [1] | other results
B1 |  | stoichiometry N [1]: 2
B2 | binds | 
B3 | binds | 
B4 | binds | 
B5 |  | HIV-LTR-luciferase reporter in NH1 cells, overexpressed Flag-AFF4 mutant against wild type (% less than wild type) [2]: 10
B6 |  | HIV-LTR-luciferase reporter in NH1 cells, overexpressed Flag-AFF4 mutant against wild type (fold less than wild type) [3]: 1
B7 |  | HIV-LTR-luciferase reporter in NH1 cells, overexpressed Flag-AFF1 mutant against wild-type AFF1 (fold less than wild-type AFF1) [4]: 1
B8 |  | stoichiometry N [1]: 2
B9 | binds | 
B10 | binds | 
B11 | binds | 
B12 | binds | 

Source: article PMC7026398, “Structural and functional insight into the effect of AFF4 dimerization on activation of HIV-1 proviral transcription” (Cell Discovery, 2020)
